The target of experiment [1] is mesothelin as expressed on the plasma membrane of human cells (HeLa, OVCAR-3, SK-OV-3, A1847) (human) (UniProt Q13421). As to the kind of experiment: flow cytometry on Hela cells, chemically biotinylated mAb K1, detection with PE streptavidin [continued) C]. For orientation: A flow cytometer gives signals particle by particle.
Experiment [2] has the same target. As to the kind of experiment: flow cytometry on HeLa cells, chemically biotinylated antibody, PE-streptavidin, Lineweaver-Burk plot.
Experiment [3] has as its target T1, mesothelin as expressed on the plasma membrane of human cells (HeLa, OVCAR-3, SK-OV-3, A1847) (human, UniProt Q13421 296-598).
T1 construct: whole, on cells; also called cellularly expressed mesothelin; cell-surface mesothelin
The experiment in a line: flow cytometry on HeLa cells, chemically biotinylated nanobody, PE-streptavidin, Lineweaver-Burk plot. On the procedure: (§1) FIG. 4: Affinity determination of nanobodies for mesothelin as expressed on the plasma membrane of cells. Hela cells were incubated with serial dilutions of in vitro biotinylated anti-mesothelin Nb-A1 (A), Nb-C6 (B) or commercial mAb K1 antibody (•; (C)). Bound antibodies were detected by flow cytometry using PE-conjugated streptavidin. Insets are Lineweaver-Burk plots used to determine the dissociation constant. Error bars represent the standard deviation of experiments performed in triplicate.
(§2) The affinity of Nb-A1 and Nb-C6 for cellularly expressed mesothelin was determined by flow cytometry using HeLa cells for the antigen as described previously; Even-Desrumeaux et al., Mol Biosyst 8(2012), 2385-2394. Briefly, binding to HeLa cells was detected using flow cytometry after incubation with various concentrations of biotinylated nanobodies followed by PE-labeled streptavidin. Apparent KD values were determined by the equation KD=a*Fₘₐₓ in which (a) is the regression line and Fₘₐₓ is the maximum of fluorescence.

Experiment [4] deals with T1, mesothelin as expressed on the plasma …. As to the kind of experiment: flow cytometry on Hela cells, chemically biotinylated Nb-A1, detection with PE streptavidin. How it is done: as §1, §2

mesothelin as expressed on the plasma membrane of human cells (HeLa, OVCAR-3, SK-OV-3, A1847) (human), sequence (Q13421 other isoform, or with tags, fused parts or gaps limits assumed): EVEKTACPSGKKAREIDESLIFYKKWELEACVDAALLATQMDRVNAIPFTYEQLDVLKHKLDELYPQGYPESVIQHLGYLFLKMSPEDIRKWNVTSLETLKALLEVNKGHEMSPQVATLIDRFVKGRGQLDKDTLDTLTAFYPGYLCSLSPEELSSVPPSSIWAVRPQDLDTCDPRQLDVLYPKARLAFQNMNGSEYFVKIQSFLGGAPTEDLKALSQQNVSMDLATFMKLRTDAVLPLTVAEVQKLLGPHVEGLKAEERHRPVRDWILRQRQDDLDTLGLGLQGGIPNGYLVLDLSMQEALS
T1 sequence (Q13421 other isoform, or with tags, fused parts or gaps limits assumed): as above

Broadly, the EC50 (read off the curve) is the concentration giving half of the maximal effect. A higher EC50 (read off the curve) goes with lower potency in that assay. A word on the Kd: it is the constant that tells how readily two partners part at equilibrium. A lower Kd goes with tighter binding. The molecule “anti-mesothelin mouse monoclonal antibody K1 (Santa Cruz Biotechnology)” registered an EC50 (read off the curve) in experiment [1] of 2 nM. The same molecule returned a Kd in experiment [2] of 2 nM.

B1: Nb-A1 (nanobody A1, comprising amino acid sequence SEQ ID NO:1) (VHH)
VHH: QVQLVQSGGGLVHPGGSLRLSCAASGIDLSLYRMRWYRQAPGKERDLVALITDDGTSYYEDSVKGRFTITRDNPSNKVFLQMNSLKPEDTAVYYCNAETPLSPVNYWGQGTQVTVS
notes: Llama VHH made in the periplasm of E. coli with a C-terminal hexahistidine tag; For the KD measurement it was chemically biotinylated (NHS-PEO4-biotin); not shown: C-terminal hexahistidine tag, named in words only
In the case of B1, in experiment [3], the Kd was ~15 nM. The “EC50 (read off the curve)” value in experiment [4] is ~20 nM.

The record behind these values is patent US20180002439A1 (INSTITUT NATIONAL DE LA SANTE ET DE LA RECHERCHE MEDICALE …, published 2018).
